Test results published in patent US20200071687.

T1: RNase A, P61823
T1 chain: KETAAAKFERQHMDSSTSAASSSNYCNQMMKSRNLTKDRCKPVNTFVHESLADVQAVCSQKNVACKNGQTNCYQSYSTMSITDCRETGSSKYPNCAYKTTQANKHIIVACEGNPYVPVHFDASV

B1: Subtilisin Carlsberg variant B24 (protein)
chain: AQTVPYGIPLIKADKVQAQGFKNVKVAVLDTGIQASHPDLNVVGGASFVAGEAYNTDGNGHGTHVAGTVAALGNTTGVLGVAPSVSLYAVKVLNSSGSGSYSGIVSGIEWATTNGMDVINMSLGGASGSTAMKQAVDNAYAKGVVVVAAGNSGSSGNTNTIGYPAKYDSVIAVGAVDSNSNRASFSSVGAELEVMAPGAGYSTYPTNTYATLNGTSMASPHVAGAAALIMSKHPNLSASQVRNRLSSTATYLGSSFYYGKGLINVEAAAPHHHHH
B2: proteinase K (protein)
chain: AAQTNAPWGLARISSTSPGTSTYYYDESAGQGSCVYVIDTGIEASHPEFEGRAQMVKTYYYSSRDGNGHGTHCAGTVGSRTYGVAKKTQLFGVKVLDDNGSGQYSTIIAGMDFVASDKNNRNCPKGVVASLSLGGGYSSSVNSAAARLQSSGVMVAVAAGNNNADARNYSPASEPSVCTVGASDRYDRRSSFSNYGSVLDIFGPGTSILSTWIGGSTRSISGTSMATPHVAGLAAYLMTLGKTTAASACRYIADTANKGDLSNIPFGTVNLLAYNNYQA

Experiments:
RNase A, P61823 = target: T1, RNase A, P61823

| Protein | digestion of the substrate protein in the presence of detergents (SDS-PAGE, Coomassie) (catalase) | digestion of Ase I, 1 hour at 37° C. (SDS-PAGE, Coomassie) (restriction enzyme Ase I) | degradation of RNaseA, 1 hour at 37° C. (SDS-PAGE, Coomassie) (RNase A, P61823) | digestion of the substrate protein in the presence of detergents (SDS-PAGE, Coomassie) (RNase A, P61823) |
| --- | --- | --- | --- | --- |
| B1 | can digest catalase (FIG. 11A) and RNAase (FIG. 11B) up to at least a 2.0% SDS concentration; catalase (FIG. 11C) and RNAase (FIG. 11D) up to at least a 2.0% Triton X-100 concentration | subtilisin B24 variant can digest Ase I in one hour at 37 °C | both the subtilisin B24 variant and proteinase K can degrade RNaseA | can digest catalase (FIG. 11A) and RNAase (FIG. 11B) up to at least a 2.0% SDS concentration; catalase (FIG. 11C) and RNAase (FIG. 11D) up to at least a 2.0% Triton X-100 concentration; and RNAase (FIG. 11E) up to at least a 2% CTAB concentration |
| B2 | – | while Proteinase K cannot | both the subtilisin B24 variant and proteinase K can degrade RNaseA | – |
